Assay results as given in PMC9701223, “GOLPH3 protein controls organ growth by interacting with TOR signaling proteins in Drosophila” (Cell Death & Disease, 2022).

B1: 6XHis-dGOLPH3 (natural protein, Drosophila melanogaster, UniProt Q9VQ93 1-294, looked up)
chain: MNRSDGLVRRSVKPRENGGAEGGLNANTPDDNQDALDNLKDQEDNIDDGDSKETRLTLMEEVLLLGLKDKEGYTSFWNDCISSGLRGCILIELGLRGRVMIEKSGMRRRGLCTRKLILKSDQQTGDVLLDEALKHIKETDPPETVQSWIEYLSGETWNPLKLRYQLKNVRERLAKNLVEKGVLTTEKQNFLLFDMTTHPLSDNVVKCRLVKKIQDSVLSKWVNDPQRMDKRMLALIFLAHASDVIENAFAPLNDDDYEVAMKRVRELLDLDFEAESAKPNANEILWAVFMAFTK
notes: Golgi phosphoprotein 3 (dGOLPH3), Drosophila melanogaster; source: bacterially expressed

Columns and labels:
6XHis-dGOLPH3 = molecular target: B1; test: pull-down; direct interaction assay: bacterially expressed 6XHis-dGOLPH3 incubated with GST or GST-tagged proteins on glutathione-Sepharose 4B beads, 1 h, 4 °C; wash 25 mM Tris-HCl pH 7.4, 150 mM NaCl, 1% NP-40, 1 mM EDTA; western blot; conditions: both partners purified
GST-Lst8 = molecular target: T1, GST-Lst8 (Drosophila melanogaster, UniProt Q9W328 1-313); test: as above; conditions: both partners purified
T1 construct: Lst8 (lethal with SEC13 protein 8), Drosophila melanogaster; full-length cDNA cloned into pGEX-6p-2; Held on glutathione beads as bait; source: E. coli ArcticExpress (DE3), purified on glutathione-Sepharose 4B beads
T1 sequence (looked up): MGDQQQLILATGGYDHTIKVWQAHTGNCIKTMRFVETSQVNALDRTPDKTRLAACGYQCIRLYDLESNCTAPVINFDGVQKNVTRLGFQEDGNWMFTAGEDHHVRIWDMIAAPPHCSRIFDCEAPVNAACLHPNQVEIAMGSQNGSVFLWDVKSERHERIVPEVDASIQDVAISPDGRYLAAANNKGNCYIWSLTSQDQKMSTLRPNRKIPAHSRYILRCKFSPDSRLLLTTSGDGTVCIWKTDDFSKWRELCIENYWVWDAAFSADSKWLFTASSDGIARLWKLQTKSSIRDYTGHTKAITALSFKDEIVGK

Row | Binder | binding result (6XHis-dGOLPH3) | binding result (GST-Lst8)
1 | GST-Tctp (Drosophila Translationally controlled tumor protein) (natural protein, Drosophila melanogaster, UniProt Q9VGS2 1-172, looked up, Translationally controlled tumor protein (Tctp), Drosophila melanogaster; full-length cDNA cloned into pGEX-6p-2; Held on glutathione beads as bait; source: E. coli BL21-Codon Plus, purified on glutathione-Sepharose 4B beads) MKIYKDIITGDEMFADTYKMKLVDDVIYEVYGKLITRQGDDIKLEGANASAEEADEGTDITSESGVDVVLNHRLTECFAFGDKKSYTLYLKDYMKKVLAKLEEKSPDQVDIFKTNMNKAMKDILGRFKELQFFTGESMDCDGMVALVEYREINGDSVPVLMFFKHGLEEEKC | binds | 
2 | B1 |  | binds
